{"source": "patent US20100077498A1", "about": "(published 2010)", "binders": {"B1": {"name": "human mature 134 amino acid glial derived neurotrophic factor (ligand, UniProt P39905 78-211, looked up)", "chain": "SPDKQMAVLPRRERNRQAAAANPENSRGKGRRGQRGKNRGCVLTAIHLNVTDLGLGYETKEELIFRYCSGSCDAAETTYDKILKNLSRNRRLVSDKVGQACCRPIAFDDDLSFLDDNLVYHILRKHSAKRCGCI", "notes": "mature; also called GDNF; mature human GDNF"}, "B2": {"name": "cTfRMAb-GDNF fusion protein (human mature GDNF fused to the carboxyl terminus of the heavy chain of the chimeric MAb against the mouse TfR) (other)", "heavy": "EVQLVESGGGLVQPGNSLTLSCVASGFTFSNYGMHWIRQAPKKGLEWIAMIYYDSSKMNYADTVKGRFTISRDNSKNTLYLEMNSLRSEDTAMYYCAVPTSHYVVDVWGQGVSVTVSSAKTTPPSVYPLAPGSAAQTNSMVTLGCLVKGYFPEPVTVTWNSGSLSSGVHTFPAVLQSDLYTLSSSVTVPSSTWPSETVTCNVAHPASSTKVDKKIVPRDCGCKPCICTVPEVSSVFIFPPKPKDVLTITLTPKVTCVVVDISKDDPEVQFSWFVDDVEVHTAQTQPREEQFNSTFRSVSELPIMHQDWLNGKEFKCRVNSAAFPAPIEKTISKTKGRPKAPQVYTIPPPKEQMAKDKVSLTCMITDFFPEDITVEWQWNGQPAENYKNTQPIMDTDGSYFVYSKLNVQKSNWEAGNTFTCSVLHEGLHNHHTEKSLSHSPGSSSSPDKQMAVLPRRERNRQAAAANPENSRGKGRRGQRGKNRGCVLTAIHLNVTDLGLGYETKEELIFRYCSGSCDAAETTYDKILKNLSRNRRLVSDKVGQACCRPIAFDDDLSFLDDNLVYHILRKHSAKRCGCI", "light": "DIQMTQSPASLSASLEEIVTITCQASQDIGNWLAWYQQKPGKSPQLLIYGATSLADGVPSRFSGSRSGTQFSLKISRVQVEDIGIYYCLQAYNTPWTFGGGTKLELKRADAAPTVSIFPPSSEQLTSGGASVVCFLNNFYPKDINVKWKIDGSERQNGVLNSWTDQDSKDSTYSMSSTLTLTKDEYERHNSYTCEATHKTSTSPIVKSFNRGEC", "notes": "Hetero-tetramer of 2 light chains and 2 fusion heavy chains; expressed in COS cells, purified on protein G; also called cTrFMAb-GDNF"}, "B3": {"name": "chimeric monoclonal antibody against the mouse transferrin receptor (rat 8D3 variable regions, mouse IgG1/kappa constant regions) (antibody, V domains shown)", "VH": "EVQLVESGGGLVQPGNSLTLSCVASGFTFSNYGMHWIRQAPKKGLEWIAMIYYDSSKMNYADTVKGRFTISRDNSKNTLYLEMNSLRSEDTAMYYCAVPTSHYVVDVWGQGVSVTVSS", "VL": "DIQMTQSPASLSASLEEIVTITCQASQDIGNWLAWYQQKPGKSPQLLIYGATSLADGVPSRFSGSRSGTQFSLKISRVQVEDIGIYYCLQAYNTPWTFGGGTKLELKR", "notes": "also called chimeric TfRMAb; cTfRMAb"}, "B4": {"name": "rat 8D3 monoclonal antibody against the mouse transferrin receptor, hybridoma generated (antibody, V domains shown)", "VH": "EVQLVESGGGLVQPGNSLTLSCVASGFTFSNYGMHWIRQAPKKGLEWIAMIYYDSSKMNYADTVKGRFTISRDNSKNTLYLEMNSLRSEDTAMYYCAVPTSHYVVDVWGQGVSVTVSS", "VL": "DIQMTQSPASLSASLEEIVTITCQASQDIGNWLAWYQQKPGKSPQLLIYGATSLADGVPSRFSGSRSGTQFSLKISRVQVEDIGIYYCLQAYNTPWTFGGGTKLELK", "modifications": "In part of the assays the antibody carried 125I (radio-iodinated tyrosines); the letters do not show this.", "notes": "Rat hybridoma antibody purified on protein G; also called 8D3 MAb; 8D3 TfRMAb"}}, "key": {"[1]": {"target": "T1, fusion protein of human Fc and the human GFRalpha1 extracellular domain (human, UniProt P56159 25-429, limits assumed)", "T1 construct": "extracellular domain; Captured on ELISA wells by a mouse anti-human Fc antibody; The order of the parts follows the printed name GFRα1:Fc; also called GFRα1:Fc fusion protein; GFRα1 ECD; not shown: human Fc", "T1 sequence (looked up)": "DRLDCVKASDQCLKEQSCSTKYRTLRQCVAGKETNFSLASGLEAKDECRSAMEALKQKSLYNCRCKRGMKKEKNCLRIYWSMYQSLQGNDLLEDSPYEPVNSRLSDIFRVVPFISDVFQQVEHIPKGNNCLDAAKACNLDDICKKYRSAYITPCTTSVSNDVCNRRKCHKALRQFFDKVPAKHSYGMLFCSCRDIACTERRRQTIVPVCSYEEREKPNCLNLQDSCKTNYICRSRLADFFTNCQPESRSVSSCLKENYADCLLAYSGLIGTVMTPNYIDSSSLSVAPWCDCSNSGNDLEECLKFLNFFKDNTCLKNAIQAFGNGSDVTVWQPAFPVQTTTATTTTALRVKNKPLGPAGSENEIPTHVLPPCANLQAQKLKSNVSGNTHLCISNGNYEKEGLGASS", "assay": "ELISA: GFRα1:Fc captured by mouse anti-human Fc, detection with goat anti-GDNF and rabbit anti-goat-AP; given as ED50", "source_text": "FIG. 10. (A) Outline of GFRα1 receptor binding assay. The GFRα1:Fc fusion protein is captured by a mouse anti-human (MAH) Fc antibody. The GDNF, or cTfRMAb-GDNF fusion protein, binds to the GFRα1, and this binding is detected with a goat anti-GDNF antibody and a rabbit anti-goat (RAG) antibody conjugated to alkaline phosphatase (AP). (B) Binding of either GDNF (top panel) or the cTfRMAb-GDNF fusion protein (bottom panel) to the GFRα1 extracellular domain (ECD) is saturable.\nThe cTfRMAb-GDNF fusion protein is a bi-functional molecule that binds 2 receptors (FIG. 8): (i) the brain capillary endothelial mouse TfR to cause RMT across the mouse BBB in vivo, and (ii) the GFRα1 on neurons, to cause therapeutic actions in brain behind the BBB. The bi-functionality of the cTfRMAb-GDNF fusion protein was tested with binding assays for both the human GFRα1 and the mouse TfR. A mouse anti-human Fc (MAH-Fc) is plated in ELISA wells and captures a fusion protein of human Fc and the human GFRα1 extracellular domain (ECD). The cTfRMAb-GDNF fusion protein, or mature human GDNF, is then added, and these molecules bind to the GFRα1 ECD in proportion to the affinity for this receptor. The binding of the GDNF or the cTfRMAb-GDNF fusion protein is then detected with a goat anti-GDNF antibody, and a rabbit anti-goat (RAG) IgG-alkaline phosphatase (AP) conjugate (FIG. 10A)."}, "[2]": {"target": "T2, mouse transferrin receptor (mouse, UniProt Q62351 1-763)", "T2 construct": "whole, on cells; Mouse fibroblasts were the source of the mouse TfR in the radio-receptor assay; also called mouse TfR; TfR", "T2 sequence (Q62351 whole entry)": "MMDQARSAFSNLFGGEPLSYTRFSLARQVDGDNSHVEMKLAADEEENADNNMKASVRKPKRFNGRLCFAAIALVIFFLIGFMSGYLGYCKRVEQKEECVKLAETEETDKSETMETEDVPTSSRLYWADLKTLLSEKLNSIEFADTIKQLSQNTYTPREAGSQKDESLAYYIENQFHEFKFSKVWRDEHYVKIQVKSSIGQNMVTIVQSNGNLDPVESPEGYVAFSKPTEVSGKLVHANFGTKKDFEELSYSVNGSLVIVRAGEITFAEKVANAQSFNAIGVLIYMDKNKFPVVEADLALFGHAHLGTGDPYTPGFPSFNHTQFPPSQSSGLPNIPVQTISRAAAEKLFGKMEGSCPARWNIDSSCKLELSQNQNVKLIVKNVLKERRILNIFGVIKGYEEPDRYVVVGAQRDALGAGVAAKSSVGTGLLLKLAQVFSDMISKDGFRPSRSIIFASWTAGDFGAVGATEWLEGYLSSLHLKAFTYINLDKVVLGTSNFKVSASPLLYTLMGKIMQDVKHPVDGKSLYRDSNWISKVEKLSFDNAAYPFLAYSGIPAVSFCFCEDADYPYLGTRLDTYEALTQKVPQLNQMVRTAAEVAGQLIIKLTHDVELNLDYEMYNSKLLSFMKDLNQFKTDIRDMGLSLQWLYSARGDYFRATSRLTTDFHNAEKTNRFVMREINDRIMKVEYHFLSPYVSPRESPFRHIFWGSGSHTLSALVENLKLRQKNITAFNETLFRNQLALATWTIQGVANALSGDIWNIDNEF", "assay": "radio-receptor assay on mouse fibroblasts, displacement of [125I]-8D3 by unlabeled cTfRMAb-GDNF, non-linear regression", "experimental": "(§1) Mouse TfR radio-receptor assay. Mouse fibroblasts were plated in 24-well cluster dishes (100,000 cells/well) 24 hours before the radio-receptor assay (RRA) of TfRMAb binding to the mouse TfR. The medium was aspirated, the cells washed with phosphate buffered saline (PBS), and 500 μL was added to each well containing 0.15 μCi/mL of [¹²⁵I]-labeled rat 8D3 MAb, and 0.3 to 100 nM concentrations of either unlabeled rat 8D3 MAb or unlabeled cTfRMAb. Following incubation at 4 C for 120 min, the medium was aspirated, the plates washed with cold PBS containing 1% bovine serum albumin (BSA), and the monolayer was lysed with 0.2 mL/well of 1 N NaOH. An aliquot was removed for protein measurement using the bicinchoninic acid (BCA) assay, and the radioactivity in the lysate was determined with a Beckmann gamma counter. The % bound/mg protein was computed from the radioactivity in the cell lysate and the total radioactivity in the medium. The 8D3 self-inhibition binding data were fit by non-linear regression analysis yield either the KD of 8D3 self-inhibition in the binding assay, or the KI of cross-inhibition by the chimeric TfRMAb or the cTfRMAb fusion protein.\n(§2) Mouse fibroblasts were used as the source of the mouse TfR, and the ¹²⁵I-labeled rat 8D3 TfRMAb was used as the binding ligand. […]"}, "[3]": {"target": "T2, mouse transferrin receptor", "assay": "radio-receptor assay on mouse fibroblasts, 4 C, displacement of [125I]-8D3 by unlabeled cTfRMAb, non-linear regression", "experimental": "as §1"}, "[4]": {"target": "T2, mouse transferrin receptor", "assay": "radio-receptor assay on mouse fibroblasts, 4 C, self-inhibition of [125I]-8D3 by unlabeled 8D3, non-linear regression", "experimental": "as §1"}, "[5]": {"target": "T2, mouse transferrin receptor", "assay": "radio-receptor assay on mouse fibroblasts, self-inhibition of [125I]-8D3, non-linear regression", "experimental": "as §1, §2"}}, "note": "“And” between values parts separate entries of the source, which are not always exact repeats. Identical values can stand only once."}
{"binder": "B1", "values": [{"measurement": "EC50", "setting": "[1]", "result": 1.03, "unit": "nM"}]}
{"binder": "B2", "values": [{"measurement": "EC50", "setting": "[1]", "result": 2.55, "unit": "nM"}, {"measurement": "Ki", "setting": "[2]", "result": 3, "unit": "nM"}]}
{"binder": "B3", "values": [{"measurement": "Ki", "setting": "[3]", "result": 2.6, "unit": "nM"}]}
{"binder": "B4", "values": [{"measurement": "Kd", "setting": "[4]", "result": 2.3, "unit": "nM"}, {"measurement": "Kd", "setting": "[5]", "result": "5 nM and 3.2 nM"}]}
